Patent publication US20040053822A1

target: HLA-A2401 (human); test: inhibition of 125I probe peptide binding to purified HLA; conditions: not given

Binder | relative binding ratio (IC50 standard/IC50 peptide)
IFSKASSSL [MAGE3 peptide, position 150, 9 amino acids] | 0.016
LYIFATCLGL [MAGE3 peptide, position 175, 10 amino acids] | 0.048

Results, then the binder that gave them:

relative binding ratio (IC50 standard/IC50 peptide) | Binder
0.12 | QYFFPVIF [MAGE3 peptide, position 144, 8 amino acids]
0.017 | NWQYFFPVIF [MAGE3 peptide, position 142, 10 amino acids]
0.0026 | SYDGLLGDNQI [MAGE3 peptide, position 185, 11 amino acids]
0.012 | IFATCLGL [MAGE3 peptide, position 177, 8 amino acids]
0.014 | LYIFATCL [MAGE3 peptide, position 175, 8 amino acids]
0.0017 | EMLGSVVGNW [MAGE3 peptide, position 134, 10 amino acids]

target: HLA-A*0201 (human); test: competition vs 125I probe peptide, purified HLA; conditions: remark: other sources report otherwise

Binder | IC50
KMVELVHFL [MAGE2.112 …] | 9.8 nM
YLQLVFGIEV [MAGE2.157 …] | 50 nM

target: HLA-B*0702 (human); test: competition vs 125I probe peptide, purified HLA; conditions: remark: other sources report otherwise

Binder | IC50
YPLWSQSI [MAGE3.77.I8 YPLWSQSI] | 60 nM

target: HLA-B*5101 (human); test: competition vs 125I probe peptide, purified HLA; conditions: remark: other sources report otherwise

Binder | IC50
VPISMLYIL [MAGE2.170.M5 …] | 70 nM
VPISHLYILI [MAGE2.170.110 …] | 50 nM

target: HLA-A*0201 (human); test: competition with 125I probe peptide, purified HLA; conditions: remark: other sources report otherwise

Binder | IC50
YLQLVFGIEV [MAGE2.157 10-mer …] | 50 nM

target: HLA-A*0301 (human); test: competition with 125I probe peptide, purified HLA; conditions: remark: other sources report otherwise

Binder | IC50
LLGDNQIMPK [MAGE1/3.189 10-mer …] | 500 nM
SVFSTTINK [MAGE2.69.V2K9 …] | 20 nM
YFFPVIFSK [MAGE3.138 9-mer …] | 5000 nM

target: HLA-A*1101 (human); test: competition with 125I probe peptide, purified HLA; conditions: remark: other sources report otherwise

Binder | IC50
YVFPVIFSK [MAGE3.138.V2 …] | 3 nM
LVHFLLLK [MAGE2/3.116 8-mer LVHFLLLK] | 40 nM

target: HLA-A*3101 (human); test: competition with 125I probe peptide, purified HLA; conditions: remark: other sources report otherwise

Binder | IC50
YVFPVIFSR [MAGE3.138.V2R …] | 6 nM
ALIETSYVK [MAGE2.277 9-mer …] | 900 nM
TVINYTLWK [MAGE2.73.V2K9 …] | 9000 nM

target: HLA-A*3301 (human); test: competition with 125I probe peptide, purified HLA; conditions: remark: other sources report otherwise

Binder | IC50
SMLEVFEGR [MAGE2.226 9-mer …] | 9 nM

target: HLA-A*6801 (human); test: competition with 125I probe peptide, purified HLA; conditions: remark: other sources report otherwise

Binder | IC50
LVHFLLLK [MAGE2/3.116 8-mer LVHFLLLK] | 400 nM
LVHFLLLKY [MAGE2/3.116 9-mer …] | 8000 nM

target: HLA-A*0201 (human); test: inhibition of 125I-probe binding to purified HLA-A*0201; conditions: remark: other sources report otherwise

Binder | IC50
KMVELVHFL [MAGE2.112 (9-mer)] | < 500 nM
YLQLVFGIEV [MAGE2.157 (10-mer)] | < 500 nM

target: HLA-A*2401 (human); test: inhibition of 125I-labelled standard peptide binding to purified HLA; conditions: not given

Binder | relative binding ratio (IC50 standard peptide / IC50 test peptide)
NYPLWSQSY [MAGE3 76-84 (position 76, 9 amino acids)] | 0.027
HFVQENYL [MAGE3 249-256 (position 249, 8 amino acids)] | -0.0004
LYIFATCLGL [MAGE3 175-184 (position 175, 10 amino acids)] | 0.048
IFATCLGL [MAGE3 177-184 (position 177, 8 amino acids)] | 0.012
LYIFATCL [MAGE3 175-182 (position 175, 8 amino acids)] | 0.014
IWEELSVL [MAGE3 221-228 (position 221, 8 amino acids)] | -0.0004
VFEGREDSI [MAGE3 230-238 (position 230, 9 amino acids)] | -0.0004

Now from value to binder:

relative binding ratio (IC50 standard peptide / IC50 test peptide) | Binder
0.016 | IFSKASSSL [MAGE3 150-158 (position 150, 9 amino acids)]
0.0017 | EMLGSVVGNW [MAGE3 134-143 (position 134, 10 amino acids)]
-0.0005 | VFEGREDSIL [MAGE3 230-239 (position 230, 10 amino acids)]
0.12 | QYFFPVIF [MAGE3 144-151 (position 144, 8 amino acids)]
0.0026 | SYDGLLGDNQI [MAGE3 185-195 (position 185, 11 amino acids)]
0.017 | NWQYFFPVIF [MAGE3 142-151 (position 142, 10 amino acids)]
